The target in this experiment is Cdc4 (UniProt P07834). Briefly: His-Far1. As to conditions: reference: wild type Far1(85-150).

“Far1 85-150 (from UniProt P21268) S87 mutant (taken as S87A; not spelled out in text)”: where the note is “sites S87”, the “binding against the reference” value is “lost”.
For the substance “Far1 85-150 (from UniProt P21268) S91 mutant (taken as S91A; not spelled out in text)”, the “binding against the reference” value (sites S91) is “lost”.

These data come from publication PMC7809796.
